Results published in patent US20240109963A1.

How the values were obtained:
CD3 on Jurkat cells = assay: flow cytometry on Jurkat cells, CD3 binding (T cell) (summary table)
[1] = biological target: full-length human Claudin 18.2 on MIA PaCa-2 cells (MIA PaCa-2+ Claudin 18.2) (human) (UniProt P56856); assay: cell-based or functional assay
[2] = biological target: Claudin 18.2 on CHO cells (CHO+ Claudin 18.2) (UniProt P56856); assay: flow cytometry on Claudin 18.2-expressing CHO cells (summary table)
Claudin 18.2 on CHO cells (CHO+ Claudin 18.2), sequence (P56856 other isoform, or with tags, fused parts or gaps limits assumed): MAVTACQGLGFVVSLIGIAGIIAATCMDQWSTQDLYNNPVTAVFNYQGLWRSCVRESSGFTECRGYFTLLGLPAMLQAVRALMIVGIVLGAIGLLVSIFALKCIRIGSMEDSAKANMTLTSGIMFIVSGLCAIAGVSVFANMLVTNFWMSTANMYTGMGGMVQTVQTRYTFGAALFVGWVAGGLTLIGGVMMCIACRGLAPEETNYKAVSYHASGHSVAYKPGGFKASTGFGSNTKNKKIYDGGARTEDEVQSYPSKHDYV

full-length human Claudin 18.2 on MIA PaCa-2 cells (MIA PaCa-2+ Claudin 18.2) (human), sequence (P56856 other isoform, or with tags, fused parts or gaps limits assumed): as above
CD3 on Jurkat cells, sequence (P07766 23-207, chain 1 of 3): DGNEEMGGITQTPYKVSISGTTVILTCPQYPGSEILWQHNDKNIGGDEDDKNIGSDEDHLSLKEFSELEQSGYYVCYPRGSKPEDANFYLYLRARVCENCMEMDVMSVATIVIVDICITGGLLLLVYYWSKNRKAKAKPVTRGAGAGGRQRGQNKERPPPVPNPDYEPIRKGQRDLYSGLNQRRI
CD3 on Jurkat cells, sequence (P09693 23-182, chain 2 of 3, further chain): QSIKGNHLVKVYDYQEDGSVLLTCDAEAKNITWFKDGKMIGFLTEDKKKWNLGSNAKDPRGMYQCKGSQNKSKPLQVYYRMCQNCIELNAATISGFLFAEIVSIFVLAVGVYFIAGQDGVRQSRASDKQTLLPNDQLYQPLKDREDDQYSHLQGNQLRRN
CD3 on Jurkat cells, sequence (P04234 22-171, chain 3 of 3, further chain): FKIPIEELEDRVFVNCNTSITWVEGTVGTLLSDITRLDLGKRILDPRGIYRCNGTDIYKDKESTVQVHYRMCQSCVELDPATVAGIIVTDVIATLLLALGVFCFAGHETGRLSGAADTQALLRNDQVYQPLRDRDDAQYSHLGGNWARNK

- EC50 (CD3 on Jurkat cells): 0.485 µg/mL
- T cell activation EC50 (CD69-positive cells) [1]: 0.0345 µg/mL
- T cell activation EC50 (CD69-positive cells), unpurified supernatant [1]: 0.0577 µg/mL
- EC50 [2]: 0.047 µg/mL
Substance: AMG910 analog (bispecific antibody)
